Experimental findings from patent US20120195910A1 (published 2012) are described below.

To fix the notation:
B1: YW508.20.84 (antibody, V domains shown)
VH: EVQLVESGGGLVQPGGSLRLSCAASGFTFTGYAIHWVRQAPGKGLEWVARISPANGNTNYADSVKGRFTISADTSKNTAYLQMNSLRAEDTAVYYCARWIGSRELYIMDYWGQGTLVTVSS
VL: DIQMTQSPSSLSASVGDRVTITCRASQDVSTAVAWYQQKPGKAPKLLIYSASFLYSGVPSRFSGSGSGTDFTLTISSLQPEDFATYYCQQSYPAPSTFGQGTKVEIKR
B2: YW508.20.06 (antibody, V domains shown)
VH: B1 VH
VL: B1 VL with A94S, S96A
B3: YW508.20.28 (antibody, V domains shown)
VH: B1 VH with G31R, Y32H, A33T
VL: B1 VL with P93R, A94I, P95Q, S96P
B4: YW508.20.33 (antibody, V domains shown)
VH: B1 VH with T30S, G31S, Y32T
VL: B1 VL with P95L, S96H
B5: YW508.20.04 (antibody, V domains shown)
VH: B1 VH with A49G
VL: B1 VL with S96A
B6: YW508.20 (antibody, V domains shown)
VH: B1 VH with A49G
VL: B1 VL with T31S, F53S, G66R, P93T, A94T, S96P

Substitutions are numbered along the chain they refer to.

One test deals with Human PCSK9 (Genbank EF692496) containing a histidine (His)8 C-terminal tag (UniProt Q8NBP7 31-692). In words: BIAcore SPR; FIG. 3A. For orientation: Surface plasmon resonance follows binding to a sensor surface in real time, without labels.
For B1, binding was put at a Kd of 0.481 nM.

The molecule B2 displayed a Kd of 0.628 nM.

Regarding B3, the Kd turned out to be 0.349 nM.

As for B4, the Kd amounted to 0.408 nM.

The molecule B5 registered a Kd of 0.757 nM.

For another test, the target named is biotinylated human PCSK9 (UniProt Q8NBP7 31-692, biotinylated (sites not given)). Put plainly: competition binding ELISA (PCSK9-LDLR).
Take B1: the concentration for half-maximal inhibition (IC50) stood at 1.39 nM. In other words, the single-digit nanomolar range.

B2 registered a 50% inhibitory concentration (IC50) of 1 nM. This IC50 and that of the molecule before are within 1.5-fold of each other.

B3: the half-inhibitory concentration (IC50) came to 1.05 nM.

As for B6, the half-inhibitory concentration (IC50) worked out at 15.2 nM.

In turn, B4 showed an IC50 of 1.31 nM.

Turning to B5, the IC50 was determined as 0.92 nM.

What is called Kd is the concentration at which binding is half-saturated. A lower Kd goes with tighter binding. As a reminder, the IC50 is the concentration that gives 50% inhibition. Read a low IC50 as inhibition by little substance.
